Holding throughout (type): physicochemical
Series [1] in a line: Capillary electrochromatography of sterilized hyaluronan. The following applies: absorbance at 194 nm, corresponds to amount of hyaluronan. As to the method: Two equivalent amounts of hyaluronan (average molecular weight: 58 kDa), were respectively subjected to ozone sterilization and autoclave sterilization. Subsequently, the sterilized samples were analyzed by capillary electrochromatography using a fused silica capillary and a 50 mM phosphate buffer (pH 2.99). Separations were carried out at 25 kV and a column temperature of 25° C. Absorbance was detected at 194 nm. Shown in Table 3 below are the areas under the peak for each of the two samples, which correspond to the amount of hyaluronan contained therein. An untreated sample was included as the control.

The nature of series [2]: Acrylamide gel electrophoresis of sterilized pepsin and bromelain. The following applies: 5% acrylamide gel, Coomassie blue. As to the method:
Samples of two dehydrated enzymes, i.e., pepsin and bromelain, were untreated, sterilized by autoclave, or sterilized with ozone. Subsequently, the samples were dissolved acetate solutions, analyzed by 5% acrylamide gel electrophoresis, and stained with Coomassie blue.

Series [3] is described as follows: Molecular property of sterilized collagen by acrylamide gel electrophoresis. How it is done: Molecular Property of Sterilized Collagen: equivalent amounts of dehydrated collagen were subjected to the following respective treatments: (1) non-treatment; (2) treatment with ozone gas, as described in Example 1; (3) treatment with ultraviolet irradiation for 12 hours; (4) immersion in 75 vol. % ethanol for 4 hours; (5) immersion in 2 vol. % formaldehyde for 1 hour; or (6) autoclave sterilization under high-temperature and high-pressure. Afterwards, each of the samples from the aforementioned treatments was dissolved in acetate solution, analyzed by 5% acrylamide gel electrophoresis, and stained with Coomassie blue.

A short description of series [4]: Fluorescence intensity of riboflavin solutions under ultraviolet irradiation. Particulars: aqueous solution; compared with untreated riboflavin solutions; higher intensity = degradation. As to the method:
Dehydrated riboflavin was untreated, sterilized by autoclave, or sterilized with ozone. Samples were then dissolved in water to prepare six riboflavin solutions, i.e., solution 1 (100 mg/mL, autoclaved), solution 2 (100 mg/mL, ozone-sterilized), solution 3 (100 mg/mL, untreated), solution 4 (50 mg/mL, autoclaved), solution 5 (50 mg/mL, ozone-sterilized), and solution 6 (50 mg/mL, untreated). Fluorescence intensities of the six solutions were observed under ultraviolet irradiation.

As for hyaluronan, the “Area under the Peak” value in series [1] (Autoclaved) was 633930; in series [1] (Ozone-treated), 814725.

For the compound pepsin, the “band in electrophoresis gel” value is reported as “a band with substantially reduced stain density” in series [2] (autoclaved) and “a single band that was the same as that shown by untreated pepsin” in series [2] (ozone-treated).

As for collagen, the “bands of α1, α2 and β chains in electrophoresis gel” value in series [3] (autoclave sterilization, high-temperature and high-pressure, lane (6)) is “mostly degraded”; in series [3] (immersion in 2 vol. % formaldehyde for 1 hour, lane (5)), “showed no bands”; in series [3] (immersion in 75 vol. % ethanol for 4 hours, lane (4)), “only showed indistinct bands”; in series [3] (treated by ozone gas, lane (2), 5% acrylamide gel, Coomassie blue), “substantially the same as the control”; in series [3] (ultraviolet irradiation for 12 hours, lane (3)), “partially polymerized and cleaved”.

For bromelain, the figures for the “band in electrophoresis gel” value in series [2] (autoclaved) and in series [2] (ozone-treated) were “only showed an indistinct band” and “the same band as the control”, respectively.

As to `Cc1cc2nc3c(=O)[nH]c(=O)nc-3n(C[C@H](O)[C@H](O)[C@H](O)CO)c2cc1C` [solution 1, riboflavin], in series [4], the “fluorescence intensity under ultraviolet irradiation” value is on record as “higher than those of the untreated control solutions”.

For `Cc1cc2nc3c(=O)[nH]c(=O)nc-3n(C[C@H](O)[C@H](O)[C@H](O)CO)c2cc1C` [solution 4, riboflavin], in series [4], the “fluorescence intensity under ultraviolet irradiation” value is recorded as “higher than those of the untreated control solutions”.
